Laboratory results reported in patent US20180030111A1.
Read-outs that look alike come from different tables or passages of the source.

Assays:
[1] = biological target: C1q complement (rabbit serum as complement source) (rabbit); experiment: cell-based or functional assay
[2] = biological target: FcgRIIIa receptor (CD16a) on human NK cells (human) (UniProt P08637); experiment: cell-based or functional assay
[3] = biological target: C1q complement (rabbit serum as complement source) (rabbit); experiment: cell-based or functional assay; remark: listed apart in the source
[4] = biological target: CD32aH (FcgRIIa receptor, H at position 131) (human) (UniProt P12318); experiment: ELISA, purified IgG on coated receptor, ratio against wild-type
[5] = biological target: CD32aR (FcgRIIa receptor, R at position 131) (human) (UniProt P12318); experiment: as above
[6] = biological target: CD32b (FcgRIIb receptor) (human) (UniProt P31994); experiment: as above
CD64 = CD64 (UniProt P12314); experiment: as above
[7] = biological target: C1q complement (rabbit serum as complement source) (rabbit); experiment: cell-based or functional assay; remark: listed apart in the source

Sequence of CD64 (P12314 16-288 limits assumed): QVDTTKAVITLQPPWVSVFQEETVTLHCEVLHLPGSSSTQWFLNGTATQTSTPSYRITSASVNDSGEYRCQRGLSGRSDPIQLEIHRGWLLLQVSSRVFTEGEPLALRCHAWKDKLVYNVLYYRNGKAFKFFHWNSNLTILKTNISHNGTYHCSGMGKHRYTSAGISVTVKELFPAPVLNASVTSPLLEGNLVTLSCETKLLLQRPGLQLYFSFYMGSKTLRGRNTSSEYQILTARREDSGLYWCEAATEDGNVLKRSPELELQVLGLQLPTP
Sequence of CD32aH (FcgRIIa receptor, H at position 131) (human) (P12318 34-217): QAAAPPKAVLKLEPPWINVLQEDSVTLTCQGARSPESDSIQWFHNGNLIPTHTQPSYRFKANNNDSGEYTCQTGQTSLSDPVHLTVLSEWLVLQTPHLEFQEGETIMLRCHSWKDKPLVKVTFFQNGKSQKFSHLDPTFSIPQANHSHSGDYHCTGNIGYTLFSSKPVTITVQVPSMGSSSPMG
Sequence of FcgRIIIa receptor (CD16a) on human NK cells (human) (P08637 17-254): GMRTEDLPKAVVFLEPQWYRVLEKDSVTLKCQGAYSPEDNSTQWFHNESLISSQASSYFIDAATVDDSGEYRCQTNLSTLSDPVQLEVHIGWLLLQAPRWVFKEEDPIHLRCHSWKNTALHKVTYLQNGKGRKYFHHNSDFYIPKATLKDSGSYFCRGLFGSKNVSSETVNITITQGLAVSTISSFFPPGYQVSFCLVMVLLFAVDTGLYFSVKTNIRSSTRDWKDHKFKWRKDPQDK
Sequence of CD32b (FcgRIIb receptor) (human) (P31994 46-217): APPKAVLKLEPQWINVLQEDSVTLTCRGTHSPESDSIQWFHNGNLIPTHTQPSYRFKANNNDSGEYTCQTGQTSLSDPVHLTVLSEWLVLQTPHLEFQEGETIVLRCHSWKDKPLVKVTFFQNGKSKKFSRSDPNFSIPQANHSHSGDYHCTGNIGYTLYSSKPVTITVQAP

Row | Substance | CDC [1] | ADCC [2] | ADCC, EC50: Antibody concentration (ng/ml) giving 50% maximum lysis of an internal control [2] | ADCC, Ratio [WT]/[antibody] [2] | CDC, Antibody concentration (ng/ml) giving 50% lysis of an internal control [3] | CDC, Ratio [WT]/[antibody] [3] | ELISA ratio (purified antibodies) [4] | ELISA ratio (purified antibodies) [5] | ELISA ratio (purified antibodies) [6] | ELISA ratio (purified antibodies) (CD64) | CDC, Antibody concentration (ng/ml) giving 50% lysis of an internal control [1] | CDC, Ratio [WT]/[antibody] [1] | ADCC, EC45: Antibody concentration (ng/ml) giving 45% maximum lysis of an internal control [2] | CDC, Antibody concentration (ng/ml) giving 50% lysis of an internal control [7] | CDC, Ratio [WT]/[antibody] [7]
1 | anti-CD20 IgG variant A3A-105D (G316D, K326E, A378V) (antibody) | 6.1 | 8.3 | 1.27 ng/mL | 8.28 | 38.5 ng/mL | 6.14 | 1.4 | 2.6 | 2 | 1.5 |  |  |  |  | 
2 | anti-CD20 IgG variant G3A-95 (I336T, A378V) (antibody) | 1.3 | 10.8 | 0.97 ng/mL | 10.8 | 177 ng/mL | 1.34 | 0.7 | 0.9 | 1 | 1.3 |  |  |  |  | 
3 | anti-CD20 IgG variant G3A-103 (K248E, A378V) (antibody) | 7.1 | 33.9 | 0.31 ng/mL | 33.9 | 33.3 ng/mL | 7.1 | 0.5 | 0.9 | 1.2 | 1.2 |  |  |  |  | 
4 | anti-CD20 IgG variant J3A-06 (A378T, V397M, V412M) (antibody) | 3.7 | 8.3 | 1.27 ng/mL | 8.28 | 64.1 ng/mL | 6.7 | 0.84 | 2 | 2.4 | 1.3 |  |  |  |  | 
5 | anti-CD20 IgG variant J3A-16 (N286Y, P352S, A378V) (antibody) | 1.8 | 8.3 | 1.27 ng/mL | 8.28 | 132 ng/mL | 1.79 | 2.61 | 1.7 | 1.7 | 1.3 |  |  |  |  | 
6 | anti-CD20 IgG variant J3A-28 (E333G, A378T, V397M) (antibody) | 7.6 | 18.4 | 0.57 ng/mL | 18.4 | 31 ng/mL | 7.64 | 1.1 | 1.3 | 1.6 | 1.3 |  |  |  |  | 
7 | anti-CD20 IgG variant J3B-23 (N286I, A378V, F423Y) (antibody) | 2.4 | 18.4 | 0.57 ng/mL |  |  |  |  |  |  |  |  |  |  |  | 
8 | anti-CD20 IgG variant J3B-118 (P396L, N421T) (antibody) | 12.2 | 9.7 |  |  |  |  | 1 | 1.1 | 1 | 1.6 | 38.7 ng/mL | 6.77 |  |  | 
9 | anti-CD20 IgG variant J3B-118A (P396L, N421T, A378V) (antibody) | 11 | 10.8 | 0.97 ng/mL | 10.8 | 21.6 ng/mL | 11 | 2.7 | 1.8 | 3.7 | 1.4 |  |  |  |  | 
10 | anti-CD20 IgG variant N3A-32 (K326T, K334N, P352S, N421T) (antibody) |  |  |  | 0.55 |  |  |  |  |  |  |  |  | 2.9 ng/mL | 66 ng/mL | 2.02
11 | anti-CD20 IgG variant N3A-58 (V284L, K334R, A378V, K447N) (antibody) |  |  |  | 0.36 |  |  |  |  |  |  |  |  | 4.4 ng/mL | 36 ng/mL | 3.69
12 | anti-CD20 IgG variant O3A-44 (A378V, K439R) (antibody) |  |  |  | 0.62 |  |  |  |  |  |  |  |  | 2.6 ng/mL | 129 ng/mL | 1.03
13 | anti-CD20 IgG variant Q4B-68 (T307P, A378V, T394P) (antibody) |  |  |  | 0.94 |  |  |  |  |  |  |  |  | 1.7 ng/mL | 126 ng/mL | 1.06

Now from value to substance:

Row | CDC [1] | ADCC [2] | ADCC, EC50: Antibody concentration (ng/ml) giving 50% maximum lysis of an internal control [2] | ADCC, Ratio [WT]/[antibody] [2] | CDC, Antibody concentration (ng/ml) giving 50% lysis of an internal control [3] | CDC, Ratio [WT]/[antibody] [3] | ELISA ratio (purified antibodies) [4] | ELISA ratio (purified antibodies) [5] | ELISA ratio (purified antibodies) [6] | ELISA ratio (purified antibodies) (CD64) | CDC, Antibody concentration (ng/ml) giving 50% lysis of an internal control [1] | CDC, Ratio [WT]/[antibody] [1] | ADCC, EC45: Antibody concentration (ng/ml) giving 45% maximum lysis of an internal control [2] | CDC, Antibody concentration (ng/ml) giving 50% lysis of an internal control [7] | CDC, Ratio [WT]/[antibody] [7] | Substance
14 | 0.7 | 12.8 | 0.82 ng/mL | 12.8 | 341 ng/mL | 0.7 | 1.1 | 0.8 | 0.9 | 1.6 |  |  |  |  |  | anti-CD20 IgG variant A3A-14 (S298N, A378V) (antibody)
15 | 2.2 | 5.3 |  |  |  |  | 1.33 | 3.2 | 3.3 | 1.4 | 210 ng/mL | 1.25 |  |  |  | anti-CD20 IgG variant A3A-184 (K334N, P352S, V397M) (antibody)
16 | 3.2 | 30.9 | 0.34 ng/mL | 30.9 | 74.1 ng/mL | 3.2 | 1.3 | 4.3 | 3.1 | 1.5 |  |  |  |  |  | anti-CD20 IgG variant A3A-184A (K334N, P352S, V397M, A378V) (antibody)
17 |  |  | > 5000 ng/mL | < 0.002 | 165 ng/mL | 1.44 |  |  |  |  |  |  |  |  |  | anti-CD20 IgG variant DL4A-54 (P352L, Q418P) (antibody)
18 | 2.8 | 12 |  |  |  |  | 5.3 | 3.6 | 2.7 | 1.4 | 168 ng/mL | 1.55 |  |  |  | anti-CD20 IgG variant G3A-43 (A231V, A378V) (antibody)
19 |  |  |  |  |  |  |  |  |  |  | 195 ng/mL | 1.34 |  |  |  | anti-CD20 IgG variant G3A-45 (K246R, A378V) (antibody)
20 | 0.9 | 1.3 | 8.07 ng/mL | 1.3 | 274 ng/mL | 0.86 | 2.94 | 3.7 | 3.9 | 2.4 |  |  |  |  |  | anti-CD20 IgG variant G3A-88 (K320E, T394P, G402D) (antibody)
21 |  |  | 2.8 ng/mL | 3.75 | 85.7 ng/mL | 2.76 |  |  |  |  |  |  |  |  |  | anti-CD20 IgG variant G3A-139 (T307N, V323I) (antibody)
22 | 3.7 |  | 7.39 ng/mL |  | 64.1 ng/mL |  |  |  |  |  |  |  |  |  |  | anti-CD20 IgG variant J3A-14 (K326T) (antibody)
23 |  |  |  |  |  |  |  |  |  |  | 210 ng/mL | 1.25 |  |  |  | anti-CD20 IgG variant J3B-16 (S267G, A378T, V397M) (antibody)
24 |  |  | 16.3 ng/mL | 0.64 | 107 ng/mL | 2.22 |  |  |  |  |  |  |  |  |  | anti-CD20 IgG variant K3B-87 (V323I, F405L) (antibody)
25 |  |  |  | 0.86 |  |  |  |  |  |  |  |  | 18.7 ng/mL | 179 ng/mL | 0.74 | anti-CD20 IgG variant N3A-27 (K290E, A378V, K392R, S440G) (antibody)
26 |  |  |  | 0.36 |  |  |  |  |  |  |  |  | 4.4 ng/mL | 44 ng/mL | 3.02 | anti-CD20 IgG variant O3A-86 (K248E, K290E, N361H, P396L) (antibody)
27 |  |  |  | 0.44 |  |  |  |  |  |  |  |  | 3.6 ng/mL | 115 ng/mL | 1.16 | anti-CD20 IgG variant P4B-89 (T307P, T366A, A378V) (antibody)
28 |  |  | 4.36 ng/mL | 2.41 | 51.5 ng/mL | 4.59 |  |  |  |  |  |  |  |  |  | anti-CD20 IgG variant QL2A-16 (K248E, N421T) (antibody)
